Data taken from patent publication US10646600B2, “HER2 polypeptides useful for imaging and monitoring tumors and cancers” (GE HEALTHCARE LIMITED, priority 2013, dated 2020).
pKd: −log10 of the molar value. Entries after “also recorded” stand apart in the source; their conditions may differ. Like-named read-outs stand apart in the source and are kept apart here.

Assays:
[1] = tested on: HER2 negative and p95HER2 transfected cell lines; assay: In vitro uptake assay, HER2 negative and p95HER2 transfected cell lines; type: cell-based, human; conditions: across all HER2 negative and p95HER2 transfected lines, 60 minutes
Source text: (§1) MCF7-vector (piRES), MCF7-p95HER2 and MCF7-HER2 cells were a kind gift of Jose Baselga's laboratory (17). MCF7 clones, MDA-MB-231 (ATCC, Manassas, Va.), MDA-MB-361 (Sigma-Aldrich), SKBR-3 (ATCC) and SKOV-3 (Sigma-Aldrich) cells were maintained in DMEM. AGS (Sigma-Aldrich), HGC-27 (Sigma-Aldrich), NCI-N87 (ATCC) and OE-33 (ATCC) cells were maintained in RPMI (Sigma-Aldrich). A431 cells (Sigma-Aldrich) were maintained in MEM Eagle medium (Sigma-Aldrich). Growth media were supplemented with 10% FCS (Lonza, Basel, Switzerland), glutamine and antibiotics (both Invitrogen, Paisley, United Kingdom). A431 cells were additionally supplemented with 1% non-essential amino acids. All cells were cultured at 37° C. in a humidified atmosphere containing 5% CO2.
(§2) For baseline uptake in HER2 positive or negative lineages, 3×10^5 cells were seeded in complete media in 12-well plates (Corning, Tewksbury Mass.) and allowed to recover overnight. Cells were washed twice with serum-free medium and pulsed with 370 KBq in 500 μL serum-free medium for one h. […]
(§3) Cells were washed with PBS, trypsinized, neutralized with complete medium and centrifuged. […] The radioactivity of 100 μL lysate was counted on a Packard Cobra II gamma counter (Perkin Elmer). Radioactivity was normalized to applied radioactivity and protein content, which was determined for each sample by BCA assay (Pierce, Rockford, Ill.). […]

[2] = target: T1, human HER2 (Homo sapiens, UniProt P04626); assay: Surface Plasmon Resonance, human HER2-ECD-Fc; type: binding
T1 construct: Human, rhesus and rat HER2-ECD-Fc (SINO Biological, Beijing, China, Cat. Nr: 10004-H02H, 90020-K02H, and 80079-R02H); Fc (C); purchased SINO Biological 10004-H02H
Method: (§4) To characterize the affinity of [^19F]GE-226[SEQ ID NO 1] to HER2 protein, Surface Plasmon Resonance studies were conducted. Human, rhesus and rat HER2-ECD-Fc (SINO Biological, Beijing, China, Cat. Nr: 10004-H02H, 90020-K02H, and 80079-R02H), as well as human HER2-ECD-Fc-6×His (R&D Systems, Minneapolis, Minn., Cat. Nr: 1129-ER) and p95HER2 ECD-Fc-6×His (Syngene, Cambridge, United Kingdom) were diluted with 50 mM sodium acetate pH 4.5 (Biacore (GE Healthcare, Buckinghamshire, UK) coupling buffer) to a final concentration of 10 μg/mL. Antigen coupling to Biacore sensor chip CMS (Cat. Nr: BR-1005-30) was done according to amine coupling protocol from the instrument manual (Syngene). HBS-EP buffer (10 mM HEPES pH 7.4, 150 mM NaCl, 3 mM EDTA and 0.005% surfactant P20; GE Healthcare, Little Chalfont, United Kingdom, Cat. Nr: BR-1006-69) was used as running buffer and as solvent for the substances. The affinity studies were performed using a Biacore T100 (GE Healthcare). [^19F]GE-226 was diluted in HBS-EP buffer to 50 nM, 25 nM, 12.5 nM, 6.25 nM, 3.125 nM, 1.56 nM, 0.78 nM, 0.39 nM, 0.195 nM, 0.097 nM, 0.049 nM and 0 nM. The flow cells of the first chip comprised of blank, human HER2-ECD-Fc-6×His, p95HER2-ECD-Fc-6×His batch I and p95HER2-ECD-Fc-6×His batch II. The flow cells on the second chip contained blank, human HER2-ECD-Fc, rhesus HER2-ECD-Fc and rat HER2 ECD-Fc. The immobilization of the proteins was validated with protein-A (Sigma-Aldrich, St. Louis, Mo., Cat. Nr: P6031) and anti-human IgG antibody (Perkin Elmer, Waltham, Mass., Cat. Nr: NEF803001EA). [^19F]GE-226[SEQ ID NO 1] was pumped in duplicate over cells in randomized order for 60 sec at 50 μL/min flow rate followed by 120 sec of HBS-EP to monitor dissociation. This was followed by regeneration of the chip with 50 mM sodium hydroxide for 30 sec at 30 μL/min flow rate followed by 60 sec run of HBS-EP to stabilize the surface. Kinetic calculations were performed using Langmuir 1:1 binding model and simultaneous calculation of association and dissociation phase.

[3] = tested on: HER2 positive cell lines; assay: In vitro uptake assay, HER2 positive cell lines; type: cell-based, human
Source text: as §1, §2, §3

[4] = Metabolic stability, plasma radio-HPLC; type: in vivo, mice; conditions: 3.7 MBq i.v., 10, 30 and 60 minutes post injection
Method: At 10, 30 and 60 minute post injection, mice were exsanguinated via cardiac puncture and blood removed for centrifugation. Plasma was obtained and kept on ice for analysis of radioactive metabolites by HPLC.

[5] = target: T2, rat HER2 (Rattus norvegicus, UniProt P06494); assay: Surface Plasmon Resonance, rat HER2-ECD-Fc; type: binding
T2 construct: Human, rhesus and rat HER2-ECD-Fc (SINO Biological, Beijing, China, Cat. Nr: 10004-H02H, 90020-K02H, and 80079-R02H); Fc (C); purchased SINO Biological 80079-R02H
Method: as §4

[6] = tested on: human p95HER2; assay: Surface Plasmon Resonance, p95HER2 ECD-Fc-6×His; type: binding
Method: as §4, with “The immobilization of the proteins was validated with protein-A (Sigma-Aldrich, St. Louis, Mo., Cat. Nr: P6031) and anti-human IgG antibody (Perkin Elmer, Waltham, Mass., Cat. Nr: NEF803001EA). [^19F]GE-226[SEQ ID NO 1] was pumped in duplicate over cells in randomized order for 60 sec at 50 μL/min flow rate followed by 120 sec of HBS-EP to monitor dissociation. This was followed by regeneration of the chip with 50 mM sodium hydroxide for 30 sec at 30 μL/min flow rate followed by 60 sec run of HBS-EP to stabilize the surface. Kinetic calculations were performed using Langmuir 1:1 binding model and simultaneous calculation of association and dissociation phase.” left out

[7] = listed as 19F-Affibody analogue

T2 sequence (P06494 23-654 limits assumed): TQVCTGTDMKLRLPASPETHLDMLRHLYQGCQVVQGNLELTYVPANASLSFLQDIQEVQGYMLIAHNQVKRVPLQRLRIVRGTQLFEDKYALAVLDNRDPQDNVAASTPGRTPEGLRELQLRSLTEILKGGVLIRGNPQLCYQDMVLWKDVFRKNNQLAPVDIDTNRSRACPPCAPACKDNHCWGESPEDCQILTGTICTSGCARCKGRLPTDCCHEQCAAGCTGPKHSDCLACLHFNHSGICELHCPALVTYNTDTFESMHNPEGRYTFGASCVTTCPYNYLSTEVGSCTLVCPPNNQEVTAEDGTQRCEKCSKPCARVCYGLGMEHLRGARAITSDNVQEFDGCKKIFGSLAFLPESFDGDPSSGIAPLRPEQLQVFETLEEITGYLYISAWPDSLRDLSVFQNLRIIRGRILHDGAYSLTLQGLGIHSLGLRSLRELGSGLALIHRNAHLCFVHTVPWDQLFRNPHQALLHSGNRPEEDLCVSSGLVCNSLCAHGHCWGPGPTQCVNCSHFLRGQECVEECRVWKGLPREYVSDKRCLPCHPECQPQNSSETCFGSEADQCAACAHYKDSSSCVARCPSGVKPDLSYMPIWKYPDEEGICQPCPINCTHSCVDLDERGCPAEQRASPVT

| Substance | background uptake [1] | pKd ([2]; human HER2, text, read-out: KD) | dependence of uptake/binding on EGFR [3] | metabolic stability [4] | metabolic stability ([4]; listed as tracer) | interaction with rat HER2 (words) [5] | interaction with rat HER2 (words) [5, 7] | interaction with rat HER2 (words) ([5]; listed as GE-226) | Off-rate koff ([2]; Human HER2) [s⁻¹] | Rmax ([2]; Human HER2) | On-rate kon ([2]; Human HER2, Langmuir 1:1 binding model) [M⁻¹ s⁻¹] | Chi-Square χ^2 ([2]; Human HER2, fit statistic) | U-value ([2]; Human HER2, fit statistic) | pKd ([2]; Human HER2, read-out: Affinity KD) | binding to human HER2 (words) ([2]; listed as GE-226) | binding to human HER2 (words) ([2]; listed as [^19F]-GE-226) | interaction with human p95HER2 (words) [6] | interaction with human p95HER2 (words) [6, 7] |
| --- | --- | --- | --- | --- | --- | --- | --- | --- | --- | --- | --- | --- | --- | --- | --- | --- | --- | --- |
| [^18F]GE-226: HER2-binding 18F-radiolabelled Affibody molecule ZHER2:2891 | 1.2±0.5 % applied radioactivity per mg protein | 10.12 | independent of presence of other targets like EGFR; also recorded: independent of expression | metabolically stable | stable in vivo | – | – | – | – | – | – | – | – | – | – | – | – | – |
| [^19F]GE-226: cold unlabeled non-radioactive 19F analogue of the tracer, used for SPR and blocking | – | 10.12 | – | – | – | did not interact | did not interact | not | 0.00131 | 133.5 | 1.73e+07 | 0.607 | 3 | 10.12 | binds with high affinity | high affinity binding | did not interact | did not interact |
